Measured values reported in article PMC12151457.

Target: Asp229 (UniProt position 204, GLPADDRVGDK)
Experiment: kinetics
Conditions: 25 °C, 100 mM NaCl, 10 mM HEPES
[1] = free enzyme (the authors interpret the pH dependence of kcat/KM as ionisation of the catalytic Asp in the substrate-free enzyme)

| Substance | pKa (free enzyme (the authors state that kcat/KM reports ionisation in the substrate-free enzyme)) | pKa [1] |
| --- | --- | --- |
| V4 Kemp eliminase (GNCA4-12 ancestral beta-lactamase-based de novo Kemp eliminase with an extra C-terminal polypeptide segment) (synthetic construct (reconstructed ancestral GNCA node beta-lactamase, last common ancestor of various Gram-negative bacteria); W229D;F290W;I250V;R256H;L260F;V261L;H291V;C-terminal polypeptide segment insertion) | 6.7 | – |
| V4-4 Kemp eliminase (V4 + L49I/G58Q/R230I/A257P/A262C) (synthetic construct (reconstructed ancestral class A beta-lactamase, GNCA node, last common ancestor of various Gram-negative bacteria); W229D;F290W;I250V;R256H;L260F;V261L;H291V;L49I;G58Q;R230I;A257P;A262C;insertion of extra C-terminal polypeptide segment (sequence not stated)) | – | about 7 |
| V4 Kemp eliminase (GNCA4-12 ancestral beta-lactamase scaffold with extra C-terminal polypeptide segment) (synthetic construct (reconstructed ancestral class A beta-lactamase, GNCA node, last common ancestor of various Gram-negative bacteria); W229D;F290W;I250V;R256H;L260F;V261L;H291V;insertion of extra C-terminal polypeptide segment (sequence not stated)) | – | about 7 |
